Reference: patent US20240376221A1 (Genmab, published 2024)
Changes are numbered by the printed parent chain. In names and notes the source's numbering stands.

B1: IgG1-CD134-012-RR-K409R (antibody)
heavy: QSLEESGGRLVTPGTPLTLICTVSGIDLSSGAMGWVRQAPGKGLEYIGYIYTGSGTTSYASWVNGRFTISMTSTTVDLKITSPTTEDTATYFCARDAASSYWGHFTLWGQGTLVTVSSASTKGPSVFPLAPSSKSTSGGTAALGCLVKDYFPEPVTVSWNSGALTSGVHTFPAVLQSSGLYSLSSVVTVPSSSLGTQTYICNVNHKPSNTKVDKRVEPKSCDKTHTCPPCPAPELLGGPSVFLFPPKPKDTLMISRTPEVTCVVVDVSHEDPEVKFNWYVDGVEVHNAKTKPREEQYNSTYRVVSVLTVLHQDWLNGKEYKCKVSNKALRAPIEKTISKAKGQPRRPQVYTLPPSREEMTKNQVSLTCLVKGFYPSDIAVEWESNGQPENNYKTTPPVLDSDGSFFLYSRLTVDKSRWQQGNVFSCSVMHEALHNHYTQKSLSLSPG
light: DIVMTQTPASVEAAVGGTVTIKCQASENIYSSLAWYQQKPGQPPKLLIYRTSTLASGVPSRFKGSGSGTQFTLTISDLESDDAATYYCQSYYHNSGGGYDYGFGGGTEVVAKRTVAAPSVFIFPPSDEQLKSGTASVVCLLNNFYPREAKVQWKVDNALQSGNSQESVTEQDSKDSTYSLSSTLTLSKADYEKHKVYACEVTHQGLSSPVTKSFNRGEC
notes: chimeric 012; also called IgG1-CD134-012-P329R-E345R-K409R
B2: IgG1-CD134-007-RR (antibody)
heavy: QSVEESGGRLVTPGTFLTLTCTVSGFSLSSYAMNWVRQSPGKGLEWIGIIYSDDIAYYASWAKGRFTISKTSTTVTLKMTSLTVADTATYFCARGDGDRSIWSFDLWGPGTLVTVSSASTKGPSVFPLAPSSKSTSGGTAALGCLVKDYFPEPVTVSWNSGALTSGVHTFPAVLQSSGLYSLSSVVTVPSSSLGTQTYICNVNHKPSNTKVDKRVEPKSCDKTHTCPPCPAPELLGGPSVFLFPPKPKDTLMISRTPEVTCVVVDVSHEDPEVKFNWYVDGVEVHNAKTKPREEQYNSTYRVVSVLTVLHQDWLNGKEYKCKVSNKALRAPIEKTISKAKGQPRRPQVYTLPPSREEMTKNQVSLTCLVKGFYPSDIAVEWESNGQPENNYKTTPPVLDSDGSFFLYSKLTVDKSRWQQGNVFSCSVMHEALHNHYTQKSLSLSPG
light: AQVLTQTPSPVSAAVGGTVTISCQSSESVWNNNWLAWYQQKPGQPPNLLIYEASTLASGVSSRFKGSGSGTQFTLTVSEVQSDDAATYYCQGGYYDSSPIWTFGGGTEVVVKRTVAAPSVFIFPPSDEQLKSGTASVVCLLNNFYPREAKVQWKVDNALQSGNSQESVTEQDSKDSTYSLSSTLTLSKADYEKHKVYACEVTHQGLSSPVTKSFNRGEC
notes: chimeric 007 with RR constant region; also called IgG1-CD134-007-P329R-E345R

Tests used:
[1] = biological target: T1, cynomolgus monkey OX40, cell surface-expressed (cynomolgus monkey, UniProt P43489 29-277 (human entry)); assay: flow cytometry, HEK293F cells with cynomolgus monkey OX40
T1 construct: full-length, on transfected HEK293F cells
T1 chain: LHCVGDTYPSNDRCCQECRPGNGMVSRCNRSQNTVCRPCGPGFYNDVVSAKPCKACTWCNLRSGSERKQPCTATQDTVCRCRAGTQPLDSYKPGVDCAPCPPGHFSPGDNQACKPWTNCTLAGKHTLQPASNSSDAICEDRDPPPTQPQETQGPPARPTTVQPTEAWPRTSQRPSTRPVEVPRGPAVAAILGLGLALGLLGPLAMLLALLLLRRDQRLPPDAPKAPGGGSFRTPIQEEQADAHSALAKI
Method: Transfected cells were seeded in 96-well plates (30,000 cells/well; ThermoFisher, cat. no. 163320) for sequential incubations, with washing steps in between using fluorescence-activated cell sorting (FACS) buffer 1 (phosphate buffered saline [PBS; Lonza, cat. no. BE17-517Q] supplemented with 0.1% bovine serum albumin [BSA; Roche, cat. no. 10735086001] and 0.02% sodium azide [NaN₃; Bio-World, cat. no. 41920044-3]) supplemented with 2 mM ethylenediaminetetraacetic acid (EDTA; Sigma-Aldrich, cat. no. 03690). […] Cells were then washed using EDTA-supplemented FACS buffer 1, resuspended in a 30 μL solution of viability marker ToPro-3 (Invitrogen, cat. no. T3605, diluted 1:10,000) in EDTA-supplemented FACS buffer 1, and subsequently analyzed on an iQue® 3 flow cytometer (Satorius). Data were analyzed using FlowJo software and were visualized using GraphPad Prism.

[2] = biological target: T2, human OX40, cell surface-expressed (human, UniProt P43489 29-277); assay: flow cytometry, ExpiCHO-S cells with human OX40
T2 construct: also called CD134; TNFRSF4
T2 sequence: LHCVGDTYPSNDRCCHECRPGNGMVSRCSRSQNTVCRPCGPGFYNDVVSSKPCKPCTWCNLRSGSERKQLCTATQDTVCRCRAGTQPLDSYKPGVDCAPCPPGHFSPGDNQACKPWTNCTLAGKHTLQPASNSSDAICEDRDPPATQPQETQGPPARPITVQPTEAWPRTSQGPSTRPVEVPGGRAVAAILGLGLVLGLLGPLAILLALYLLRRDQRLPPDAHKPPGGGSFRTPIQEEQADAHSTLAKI
Method: (§1) The four shuffle constructs, as well as wild-type human and mouse OX40 were transiently expressed on ExpiCHO-S cells using the ExpiFectamine™ CHO Transfection Kit (ThermoFisher, cat. no. A29131), according to the manufacturer's protocol. […] Next, cells were washed twice in FACS buffer 1, were resuspended in a 30 μL solution of viability marker ToPro-3 (Invitrogen, cat. no. T3605, diluted 1:10,000) in FACS buffer 1 supplemented with 2 mM EDTA, and were analyzed on an iQue Screener Plus (Intellicyt Corporation, USA). Data were analyzed using FlowJo software and visualized using GraphPad Prism.

[3] = biological target: T3, human OX40 with mouse CRD4 (human with mouse CRD4, UniProt P43489 29-277); assay: flow cytometry, ExpiCHO-S cells with human OX40 carrying mouse CRD4
T3 construct: on transfected ExpiCHO-S cells; also called Shuffle 4; OX40-CRD4mm
T3 chain: T2 sequence with D109N, A122S, H125Q, L127R, Q128H, N132D, S134L, I137V
Method: (§2) Data shown are the geometric mean of the fluorescence intensity (gMFI) from one representative experiment out of two experiments performed.
as §1

[4] = biological target: T4, human OX40 with mouse CRD3 (human with mouse CRD3, UniProt P43489 29-277); assay: flow cytometry, ExpiCHO-S cells with human OX40 carrying mouse CRD3
T4 construct: on transfected ExpiCHO-S cells; also called Shuffle 3; OX40-CRD3mm
T4 chain: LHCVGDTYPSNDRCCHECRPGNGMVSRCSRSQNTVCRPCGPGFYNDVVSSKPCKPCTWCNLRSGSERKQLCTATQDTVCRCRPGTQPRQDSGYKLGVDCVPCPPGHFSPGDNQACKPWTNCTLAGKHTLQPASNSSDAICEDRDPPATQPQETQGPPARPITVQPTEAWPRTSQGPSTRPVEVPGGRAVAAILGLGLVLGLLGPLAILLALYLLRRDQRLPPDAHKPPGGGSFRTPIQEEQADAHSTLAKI
Method: as §1

[5] = biological target: T5, human OX40 with mouse CRD2 (human with mouse CRD2, UniProt P43489 29-277); assay: flow cytometry, ExpiCHO-S cells with human OX40 carrying mouse CRD2
T5 construct: on transfected ExpiCHO-S cells; also called Shuffle 2; OX40-CRD2mm
T5 chain: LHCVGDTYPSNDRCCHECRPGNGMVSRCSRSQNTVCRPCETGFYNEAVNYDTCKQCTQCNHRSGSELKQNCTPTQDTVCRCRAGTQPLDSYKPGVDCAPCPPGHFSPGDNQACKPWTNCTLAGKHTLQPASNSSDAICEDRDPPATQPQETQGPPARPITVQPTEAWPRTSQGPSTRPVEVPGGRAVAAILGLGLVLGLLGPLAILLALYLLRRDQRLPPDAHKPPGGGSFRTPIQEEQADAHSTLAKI
Method: as §1

[6] = biological target: T6, human OX40 with mouse CRD1 (human with mouse CRD1, UniProt P43489 29-277); assay: flow cytometry, ExpiCHO-S cells with human OX40 carrying mouse CRD1
T6 construct: on transfected ExpiCHO-S cells; also called Shuffle 1; OX40-CRD1mm
T6 chain: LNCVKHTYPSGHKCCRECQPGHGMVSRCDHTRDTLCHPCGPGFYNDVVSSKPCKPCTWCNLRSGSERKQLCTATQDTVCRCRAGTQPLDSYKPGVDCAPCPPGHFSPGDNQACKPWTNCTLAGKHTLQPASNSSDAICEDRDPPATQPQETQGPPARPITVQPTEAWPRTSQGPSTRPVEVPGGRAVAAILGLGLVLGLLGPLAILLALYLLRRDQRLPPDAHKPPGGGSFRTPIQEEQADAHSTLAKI
Method: as §2, §1

Binder | EC50 (read off the curve) [1] [mg/L] | EC50 (read off the curve) [2] [mg/L] | EC50 (read off the curve) [3] [mg/L] | EC50 (read off the curve) [4] [mg/L] | EC50 (read off the curve) [5] [mg/L] | EC50 (read off the curve) [6] [mg/L]
B1 | ~0.05 | ~0.06 | ~0.1 | ~0.1 | ~0.1 | –
B2 | – | ~0.005 | ~0.009 | ~0.02 | – | ~0.005
